Measurements from publication PMC4251946, “The mechanism of H171T resistance reveals the importance of Nδ-protonated His171 for the binding of allosteric inhibitor BI-D to HIV-1 integrase” (Retrovirology, 2014).

How the values were obtained:
[1] = target: H171T HIV-1 integrase (IN) (HIV-1); assay: SEC; Superdex 200 10/300 GL; 20 mM HEPES pH 6.8, 750 mM NaCl, 10 mM MgSO4, 0.2 mM EDTA, 5 mM BME, 5% glycerol, 200 μM ZnCl2; 4°C; tetramer and monomer peaks
[2] = target: H171T HIV-1 integrase (IN) (HIV-1); assay: AlphaScreen or HTRF
[3] = target: T1, LEDGF/p75 (UniProt O75475 1-530); assay: AlphaScreen or HTRF; conditions: both partners purified
T1 construct: source: E. coli, purified as described previously [37]; not shown: FLAG, C-terminal, kept

## H171T HIV-1 integrase (IN) (enzyme)
[1]
  stoichiometry N: 4

## LEDGF/p75 (from UniProt O75475 1-530) (natural protein)
[2]
  Kd: 10.5 nM

B1: WT HIV-1 integrase (IN) (enzyme)
chain: FLDGIDKAQEEHEKYHSNWRAMASDFNLPPVVAKEIVASCDKCQLKGEAMHGQVDCSPGIWQLDCTHLEGKVILVAVHVASGYIEAEVIPAETGQETAYFLLKLAGRWPVKTVHTDNGSNFTSTTVKAACWWAGIKQEFGIPYNPQSQGVIESMNKELKKIIGQVRDQAEHLKTAVQMAVFIHNFKRKGGIGGYSAGERIVDIIATDIQTKELQKQITKIQNFRVYYRDSRDPVWKGPAKLLWKGEGAVVIQDNSDIKVVPRRKAKIIRDYGKQMAGDDCVASRQDED
notes: also called WT IN; source: E. coli, purified as described previously [37]; not shown: 6xHis, N-terminal, kept
[3]
  Kd: 3.3 ± 0.3 nM
